Experimental data from the DeepSol protein solubility set.

Experiment: soluble on expression in E. coli; label from the status in PepcDB or PDB records

Sequence	soluble on expression in E. coli
MNRHSAGQSTPVRVATLDQLKPGVPTAFDVDGDEVMVVRDGDSVYAISNLCSHAEAYLDMGVFHAESLEIECPLHVGRFDVRTGAPTALPCVLPVRAYDVVVDGTEILVAPKEADHHHHHH	soluble
MKPLTDTDYIHALIAEGEHQQQDFKFEISDTRKIAKTLSAFANTDGGRLLIGVKDNGKIAGVRSDEEKYMIEAAAQLYCWPEVDYSMQTFHVEGRSVLVVQIDESEHKPVFAKDENGKSLAYIRIKDENILATPVHLRVWQQSGSPAGELIRYTEREQLLLDLLEENTSLSLNRYCRQAGISRRAAEHLLAKFIRFDIVEPIFENHKFYFRLKLEHHHHHH	soluble
MKFLRIEDEVIYSKKRYKLKREIDKLFLDEEYFQIEPQLFEEYDEFTTINNKIPEESMVKVVNGKVMVLRADITTSIIKSLVPRWEDGLKLKLFYNSSIYKNKNTVGIKEIRQIGCEYLGEASVEADREVVKLALKILEKYNNNFILEVGSSKYIHGLLEELNLNKNCENQIKNLLYTKNTHELKVYIEELKIKHEVKELLSNILSLQGNLYNVIEKSNKFYCNNKMKQALEELKQVNNLIEECNFLDKARFDLSMITMLDYYEGIMFRGYYPNSYKEILSGGRYDSLTKEYGKEIPAIGFTLSVDELMKYVYK	soluble
STNPKPQRKTKRNTNRRPQDVKFPGGGQIVGGVYLLPRRGPRLG	soluble
KKTVRRILGVVEIGGSGENITKTELFKYDGISDSVVKTGICMWEEDVCQIAGITRDELMDDRINRKKVLKYMVNNNINDIRKVGDVLKQYQENPENVLKNIL	not soluble
EISGFGQCLVWVQCSFPNCGKWRRLCGNIDPSVLPDNWSCDQNTDVQYNRCDIPEETWTGLE	soluble
WRKDIVLPKDQAKGVRPYNPKFKDSEYFSRYNALINDERLIEFAKKNNYKITFFPHPDIQQQIVDFEKHDYVEFADYNSSYQMLFNSSNIMITDFSSVAFDFAYEKKPVIYYQYEKSYHFKLDYYDYKKMGFGDVLENHNSLVDKVIYYMKNNSRMEDKYRKRVDNFFAYTDKNNRNRIYNAILE	not soluble
MGLSVVILAAGKGSRMNSNKPKVLQTLAAKTLIEHVVSSVEKLNPDNIVVVTGHLKEQVEDALQGRNITFVYQQQQLGTGHAVLQALPYLKEQKVLILYGDVPLISTEVLENLVDTTNDDDLGVLTAFVENPQGLGRIVRDKFGAVTEIVEEKDANDIQRQIKEINTGIYCVHKNLLQKWLPEIKANNVQKEYYLTDIITFAKADHVSINVTHPINEFEILGVNDRTQLASLERVWQRNVAEKIMAKGVSIADPNRFDVRGNLDVGKDCWIDINVIIKGNVKLGNNVVIGANCILKNCIIEDNVRIKSNSMVDGSIIREGAIVGPFARVRPECDVKEGAVIGNFVEAKKTILGKGSKASHLTYLGDSEIGANCNIGAGVITCNYDGVNKHKTVIGDYAFIGSDSQLIAPVNIGQGATVGAGSTIVKDVPADNLAISRARQRHIDTWQRSVKKTDK	not soluble
EIHHRIKNNLQVICSLLSLEAERFSDEKMLETLKESQNRVASMALIHEELYKGDKNDTLDFAAYLRKLTADLFSSYNLGNDNISLKMDL	not soluble
ASGRRAPRTGLLELRCGAGSGAGGERWQRVLLSLAEDALTVSPADGEPGPEPEPAQLNGAAEPGAAPPQLPEALLLQREVSPYFKNSAGGTSVGWDSPPASPLQRQPSSPGPQPRNLSEAKHVSLKMAYVSRRCTPTDPEPRYLEICAADGQDAVFLRAKDEASARSWAGAIQAQIGT	soluble
MSTASVLDDIDYDSSFEMVEEEKFEKIENTDNSENFQYVSTKGNTVKEVNINSNEKKKKEAPIQILTAMIGKWKLASSENLQEYFTLEKFPEITQMAWEHGITCYKMNGNQLHVHTDLLGKSLIPTIFEFDKPIARDDNAVSTHAEGNMMSTICKRIADGSIVWKVERLIKNGNLVVFNSRGNFRCKRVYKRVN	not soluble
MRNVELIFIPTPTVGHLVPFLEFARRLIEQDDRIRITILLMKLQGQSHLDTYVKSIASSQPFVRFIDVPELEEKPTLGSTQSVEAYVYDVIERNIPLVRNIVMDILTSLALDGVKVKGLVVDFFCLPMIDVAKDISLPFYVFLTTNSGFLAMMQYLADRHSRDTSVFVRNSEEMLSIPGFVNPVPANVLPSALFVEDGYDAYVKLAILFTKANGILVNSSFDIEPYSVNHFLQEQNYPSVYAVGPIFDLKAQPHPEQDLTRRDELMKWLDDQPEASVVFLCFGSMARLRGSLVKEIAHGLELCQYRFLWSLRKEEVTKDDLPEGFLDRVDGRGMICGWSPQVEILAHKAVGGFVSHCGWNSIVESLWFGVPIVTWPMYAEQQLNAFLMVKELKLAVELKLDYRVHSDEIVNANEIETAIRYVMDTDNNVVRKRVMDISQMIQRATKNGGSSFAAIEKFIYDVIGIKP	soluble
MGVMESGRPPAKPRERVFVGGCLHAGMDHDTAGRTSRQILDAVGSAVIADDHFLETVMTGILARGHVLLEDVPGTGKTLTAQSFATALDLSFKRVQFTPDLLPSDITGSNVFNEATGEFDFQPGPVFANVVLADEINRAPPKTQAALLEAMGEKQVTVDGVTHDLPEPFFVIATQNPVEQEGTFGLPEAQRDRFIVKTSMGYPDFGGERELIDRRADRTAQAPSVTSVIDGERLPALQRTVESVTVDGTLRDYVVELGRATREDDRVDVGVSPRGIQRLFEATRAAAVLDGRDYAVPDDVKTVVEEAFAHRLVLTADAGVRGVDPATVVDDVLDRVEVPAVSPLEHHHHHH	not soluble
MRRGMTGLKTLAQQIALIWKNDPQQFESQAVAVMDAVKNRMPGRAKINVDVFSKLELSLRTSFDLQDGGFSGSPKFFNTPALNYLLERFYETGNEEILNFIGLTLKTISIRGIHDLVNGGFFRYSTDTMWIVPHFEKMLYTQTQLMKLFSKMFMLTRDNVYRDMIYDIKRFMDENLYWPGHGYYSGMDADVDGNEGGYYKWSFQDLKVALGQDFEAFRAIFDISEGGNYMDELYGQTGDNLIYFTGSFDEYRRSIEENGSTDMLSRSIEKLREAEKKRKKPSVDKKILTDLNGLAISSLSWAYRATGDKEFLDSAVSVSEFIIKNMIGDYLLHSFFEGSASVKSSLFDYAFLIRGLIDLYTITFDQKYLEEAKKLADEAIKFLFDGKFKLSEEIDDPQIADSEVESPYATIVADLDDLSLLTEDLQYHQIADQALTSVFDAVSRFPSAFPSLEHHHHHH	not soluble
MGSDKIHHHHHHMVGCLTLTLLVGCSAAEKPVEQVKQVKNTLTAKLATEEKMIEIDGQTIYFKKIGNEKPPLLMIHGFGGSSDGFQKIYSDLAKNHTIISVDALGFGRSSKPMDFYYSFPTHANLYYKLMKKLGYDSFAILGHSMGGEISLNLTYLYPEAVTHLILTDATGGPHTLVNKQGSPRPQLSTDLNTVSAITDYDESKVKFKRNDEEHYNKMKLWPRRLQINADEIKQPTLIIWGRNDSSVSWEEGETYHQFFKNSTFHIIEKGYHAPFRQEPQEFVGYVKDFFDKNPIIAEK	not soluble
MAHHHHHHMLRFTHRALARKAAVKAGSRTSAAAGATAALHAAPAAPQNAVSIPPIPGVRSVRAFRTQKMEALQPQPAAATAGRKAFAAKGSKHVKAALKSRPSKKVKLPKKAAAPSRAQQAQQVKHAKQLKAPKSAAKEISKKAKTAKARK	soluble
MGSDKIHHHHHHMICMAVGIASLLFNIEEALNICESIKQITHLEIGIDNISECSELCKYKERISKLGLSIGIHLPMELNTCENIEYIRNSWINFIEKIEFELKGFDLRYFNLHLGYVMTNRVRKNRDKYLGNSVDFLDKLNTNSYVCIENTYSKGGDFSNIGNISYDFEYIFKRIKNSKICFCYDTGHCLIDEDAYVKNLKDKIRLIHLSDNDGINDTHVGIGRGILSEEGIKEVLTLDAEYLVLEINYEDIEDTISKLNNIVGEG	not soluble
MKVIIDGEVRTLKAAWYEDGEVKLIDQRELPDKIKIFSAKNSDDIAYAIKNMVVRGAPAIGVTAAYGLAMASKNGEDMNKAKEKIRATRPTAYDLFKAIRYMEVNGYDMNAARRYAMEIEGRSKKIGELGNELIRNGAKILTHCNAGALAVLDWGTALSPMRIAHNEGKNIFVFVDETRPRLQGAKLTAWELAQEGIDHAIIADNAAGFYMRRKEIDLVIVGADRIASNGDFANKIGTYEKAVLAKVNGIPFYVAAPGSTFDFSIRSGDEIPIEERDENEVLEINGIRIGPNESHSKNPAFDVTPNEYVTGFITEYGIFKPNELNKLKDLMDKDLFMNIK	not soluble
MGSDKIHHHHHHMALIEGFRVRNYRALRDITLGRLSAEQQGDPLTPFTVVIGKNGVGKSTLFDAFGFVADCLSKDVESACDDKQRGGFERMRSLGTEESIRFDIYYREAKGERPITYELAINLDSSGRPFVESEVLKQRRKGQKHGRPYPFLRLHHGVGKVWAGEEAVETSSGEEDRAQEDVELTDLRQLGIATLGTLKEHPRIKRFRDFLKGWHLSYFHPDSARSIPSAGAQRHLDVHGENIGNVVQYMEREHKERFKTILDRIAAKIPGVHSIRTTVTQDKRVLLQFNDGAFNDPFYAGQMSDGTLKIFAYLLLMEDPEPPPFICIEEPENGLYHRLLDSLASELRSHATGKKNAPQIFVTTHQPYFVDALSTKEVWILEKGKNGFSTICRASDIDLVRNLVEEGLPLGGLWYGDYLDTK	not soluble
MADNINESEIIERLNSAPSVRGFFIATVDVFNESIDGLIQRIFRKDNFAVQSVVGPLLQDSGPLGDLSVRLKLLFGLGVLPDDIYHDIEDIIKLKNHLNSDASDYEFTDPNILEPIKKLHLVKKMGMVQLEVNEPDDDIDLEFYQLQLQRQQQIIKSGLSLAIVEICNELGK	soluble
MPHTNGKGGGAQKWAGNNKRKRNFDGEQDPSVRKALKEKRLLKKRKQDLKGQEETMLDEVEQKYQEMLKKSSRTFLRFEDFPLSWRTLEGLKDNDYTKPTEIQRDTIAYSLTGSDVVGAAKTGSGKTLALVIPVLEALWRAKWSPDYGLGALIISPTRELALQTFSTINAVGAHHGFSCGLVIGGSDVAFERNRISGINIIVCTPGRLLQHMDENAQMSCDSLQVLVLDEADRMLDMGFSKQLNSIINNLPAERQTLLFSATQTRNVKDLCRVCTNDPVFVSVHENASAATPDNLKQSYVIVEEEHKINALWSFIEAHRKKKSLVFVSSCKQARFLTEAFSQLRPGLPVMGLWGTMNQKKRIETFTKFDESKAAVLIATDVASRGLDFEHIDWVIQVDCPAQIDDYIHRVGRSARMDDSGNSLLMVSPSQEEAMIGKLEKHSIPIEELKIHPDAMSDVRVKLRAILAESQELKEYAQKSIVAYLRSIYTMKDKKVFDVEAIDAAALADSFGLVSVPRVRFLNKKAKKSGEKLMEKEVKEEEEEASLVGKFAIDEDDEDIFTVKKPTGEPEQIKEEEAAEKISNITISKTKPLKKAVTKVSAAKKILNKKLKVNTKKTFGAEDDELEELEEGPSTITSYGLDIEKARQEIKSGDKEDRKRFKLLREQRRQEKLAKKNRRAEEEEAVEYDEDGSEDEPDISWLPDPDAVRRKYEEEPDEVEDLEQQALAALGRK	not soluble
AIADNGDWGYMMTDPVTLNVGGHLYTTSLTTLTRYPDSMLGAMFGGDFPTARDPQGNYFIDRDGPLFRYVLNFLRTSELTLPLDFKEFDLLRKEADFYQIEPLIQCLNDPKPLYPMDTFEEVVELSSTRKLSKYSNPVAVIITQLTITTKVHSLLEGISNYFTKWNKHMMDTRDCQVSFTFGPCDYHQEVSLRVHLMEYITKQGFTIRNTRVHHMSERANENTVEHNWTFCRLARKTDD	soluble
SFALEELPRIPDFTERAICELFELYASIESVQLPPQSSDATNSSSATAPGNIFSAERGPRYLGPRALVRFFTELGVDMRSLAALAFAWLGRWQYPCHCREEGFARGVRYALWALDRRQHNEPRRWEQVQATCSTLLETSIWPRESTALFERLRSAFPDAVLSYTQRSAEAALDFYLFAFDLNRQSPYRRSLSLTDARYLWKQFLSESCYLATPASPGTPAGVANQPWRYLEHFDAYLESRCGMAGTIISRDTWYWVLMFARETQVAGSSFFANYNQGDAWPVLLDGFVEYLRENKLLSS	soluble
